Reference: patent US20120231006A1 (Amgen, published 2012)

Tests used:
human Orai1 [1] = molecular target: T1, human Orai1 (human, UniProt Q96D31 1-301); assay: KinExA, AM1-CHO/hOrai1/hSTIM1-YFP cells
T1 construct: on AM1-CHO/hOrai1/hSTIM1-YFP, AM1/hOrai1, HEK-293 transfectants, endogenous on Jurkat and blood cells; in Westerns from cell lysates; also called hOrai1; CRACM1
Method: Each equilibrium sample set was read in triplicate on the KinExA machine. For low [Ab] equilibrium samples 4 mL was run of each sample in triplicate. For high [Ab] equilibrium samples 300 μL was run of each sample in triplicate. […] For each equilibrium sample the free [Ab] would be detected by first running the coated beads through the flow cell, then after quick wash with the running buffer (1×PBS pH7.4+1% BSA+0.05% Sodium Azide) the equilibrium samples were passed through the beads followed by a quick wash with the running buffer. Then the secondary detection Ab, Gt anti Hu (H+ L) Cy5, was run through the flow cell at 1 μg/mL and 1000 μL per run. The KinExA voltage output signal was then used in KinExA software to calculate the Kd values for each antibody. From the plots at two different initial total [Ab] concentrations the Kd was obtained from curve fitting using n-curve analysis in KinExA Pro software (Sapidyne Instruments Inc., Boise Id.).

human Orai1 [2] = molecular target: T1, human Orai1; assay: cell-based or functional assay
[3] = molecular target: T2, hOrai1-mOrai1 ECL2 (…) protein (human/mouse chimera, UniProt Q96D31 1-301); assay: FACS, 293EBNA, RFI-POC grade; design: concentration or dose not given beside the values
T2 construct: also called Ch
T2 sequence (Q96D31 other isoform, or with tags, fused parts or gaps): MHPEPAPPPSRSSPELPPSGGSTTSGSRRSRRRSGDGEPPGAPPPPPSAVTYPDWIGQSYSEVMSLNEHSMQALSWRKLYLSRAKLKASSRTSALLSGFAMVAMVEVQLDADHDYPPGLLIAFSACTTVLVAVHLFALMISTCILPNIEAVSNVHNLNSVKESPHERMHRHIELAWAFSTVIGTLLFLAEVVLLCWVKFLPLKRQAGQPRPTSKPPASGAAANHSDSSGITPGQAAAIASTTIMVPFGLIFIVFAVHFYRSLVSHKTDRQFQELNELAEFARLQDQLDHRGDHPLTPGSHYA

[4] = molecular target: T3, hOrai1-mOrai1 ECL2 (…) protein (human/mouse chimera, UniProt Q96D31 1-301); assay: FACS, 293EBNA, RFI-POC grade; design: concentration or dose not given beside the values; remark: listed apart in the source
T3 construct: also called Ch
T3 sequence (Q96D31 other isoform, or with tags, fused parts or gaps): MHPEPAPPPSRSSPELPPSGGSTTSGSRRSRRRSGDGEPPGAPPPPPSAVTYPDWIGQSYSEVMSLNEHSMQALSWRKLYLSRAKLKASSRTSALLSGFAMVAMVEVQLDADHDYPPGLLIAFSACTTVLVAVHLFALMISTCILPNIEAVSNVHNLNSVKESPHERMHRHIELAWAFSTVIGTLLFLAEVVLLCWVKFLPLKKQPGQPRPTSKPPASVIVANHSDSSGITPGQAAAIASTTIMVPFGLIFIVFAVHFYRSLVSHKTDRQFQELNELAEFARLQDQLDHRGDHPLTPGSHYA

[5] = molecular target: T4, hOrai1-mOrai1 ECL2 (…) protein (human/mouse chimera, UniProt Q96D31 1-301); assay: FACS, 293EBNA, RFI-POC grade; design: concentration or dose not given beside the values; remark: listed apart in the source
T4 construct: also called Ch
T4 sequence (Q96D31 other isoform, or with tags, fused parts or gaps): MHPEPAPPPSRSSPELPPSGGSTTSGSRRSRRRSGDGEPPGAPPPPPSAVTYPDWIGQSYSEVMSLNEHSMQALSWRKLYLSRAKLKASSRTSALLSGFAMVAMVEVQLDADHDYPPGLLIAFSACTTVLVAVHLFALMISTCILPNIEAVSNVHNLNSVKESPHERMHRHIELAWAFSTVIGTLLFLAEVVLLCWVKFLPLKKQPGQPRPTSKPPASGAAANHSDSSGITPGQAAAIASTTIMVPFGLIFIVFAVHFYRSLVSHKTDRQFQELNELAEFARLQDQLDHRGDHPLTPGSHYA

[6] = molecular target: T5, mOrai1-hOrai1 ECL2 chimeric protein (human/mouse chimera, UniProt Q8BWG9 1-304 (mouse entry)); assay: FACS, 293EBNA, RFI-POC grade; design: concentration or dose not given beside the values
T5 construct: mouse Orai1 with human ECL2; also called Ch
T5 sequence (Q8BWG9 other isoform, or with tags, fused parts or gaps mutant): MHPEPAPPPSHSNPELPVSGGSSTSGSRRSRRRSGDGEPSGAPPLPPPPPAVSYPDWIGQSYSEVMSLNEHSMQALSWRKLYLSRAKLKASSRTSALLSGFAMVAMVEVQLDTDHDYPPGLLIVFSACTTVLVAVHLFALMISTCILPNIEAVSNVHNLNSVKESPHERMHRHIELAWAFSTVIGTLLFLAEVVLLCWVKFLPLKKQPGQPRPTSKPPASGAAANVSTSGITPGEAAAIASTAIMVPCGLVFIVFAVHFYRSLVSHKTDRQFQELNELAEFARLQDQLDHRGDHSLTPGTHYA

[7] = molecular target: T6, hOrai1-mOrai1 ECL2 (SKPPA) protein (human/mouse chimera, UniProt Q96D31 1-301); assay: FACS, 293EBNA, RFI-POC grade; design: concentration or dose not given beside the values
T6 construct: also called Ch
T6 sequence (Q96D31 other isoform, or with tags, fused parts or gaps): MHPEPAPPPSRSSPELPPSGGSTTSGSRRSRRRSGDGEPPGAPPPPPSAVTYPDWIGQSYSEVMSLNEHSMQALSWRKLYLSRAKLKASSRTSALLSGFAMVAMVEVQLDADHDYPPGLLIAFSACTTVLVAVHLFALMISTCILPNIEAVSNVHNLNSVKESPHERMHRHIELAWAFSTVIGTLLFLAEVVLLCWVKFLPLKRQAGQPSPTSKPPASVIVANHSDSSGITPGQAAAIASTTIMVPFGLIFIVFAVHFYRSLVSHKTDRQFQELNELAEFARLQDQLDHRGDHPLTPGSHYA

[8] = molecular target: T7, hOrai1-mOrai1 ECL2 (RPTSKPPA) protein (human/mouse chimera, UniProt Q96D31 1-301); assay: FACS, 293EBNA, RFI-POC grade; design: concentration or dose not given beside the values
T7 construct: also called Ch
T7 sequence (Q96D31 other isoform, or with tags, fused parts or gaps): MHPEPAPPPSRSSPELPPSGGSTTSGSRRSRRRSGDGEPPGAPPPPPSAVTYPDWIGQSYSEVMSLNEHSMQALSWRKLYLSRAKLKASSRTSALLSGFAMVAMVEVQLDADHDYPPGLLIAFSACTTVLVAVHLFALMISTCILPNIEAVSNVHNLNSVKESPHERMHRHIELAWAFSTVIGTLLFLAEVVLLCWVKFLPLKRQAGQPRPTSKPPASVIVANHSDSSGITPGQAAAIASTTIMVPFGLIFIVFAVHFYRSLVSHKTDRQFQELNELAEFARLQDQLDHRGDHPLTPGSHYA

human Orai1 [9] = molecular target: T1, human Orai1; assay: cell-based or functional assay; remark: listed apart in the source
human Orai1 [10] = molecular target: T1, human Orai1; assay: cell-based or functional assay; remark: listed apart in the source
[11] = molecular target: T8, mOrai1-hOrai1 ECL2 (…) protein (human/mouse chimera, UniProt Q8BWG9 1-304 (mouse entry)); assay: FACS, 293EBNA transfectants [D00028 FIG. 16B]
T8 construct: also called Ch
T8 sequence (Q8BWG9 other isoform, or with tags, fused parts or gaps): as the sequence (Q8BWG9 other isoform, or with tags, fused parts or gaps mutant) above, with P218A, A219E, G221V, A222I, A223V, V226H, T228D counted along it
Text: (§1) FIG. 16A-D illustrates the results of FACS analysis showing binding to the indicated mOrai1-hOrai1 ECL2 chimeric mutants expressed on the surface of HEK-293-EBNA cells. Transfected cells were stained first with recombinant monoclonal antibodies then counter-stained with a secondary phycoerythrin-labeled goat (“Gt”) anti-human (“Hu”) IgG F(ab′)₂ antibody fragment and visualized using FACS. In FIG. 16B and FIG. 16D, The values of Relative Fluorescence Intensity as Percent of Control (RFI-POC) are calculated from the relative fluorescence intensity geometric mean (Geo Mean). The geometric mean is an average calculated by multiplying a series of numbers and taking the nth root where n is the number of numbers in the series. It is a statistical average of a set of transformed numbers often used to represent a central tendency in a highly variable data set that minimizes the effects of extreme values.
(§2) Table 11A and Table 11B feature a schematic representation of the POC data from FIG. 16B and FIG. 16D, respectively, where the binding results are recorded as (+++) denoting binding POC from 40% to 100%, (++) for POC of 5% to less than 40%, (+) for POC from 1% to less than 5% and (−) as lack of binding with POC less than 1%.

[12] = molecular target: T9, mOrai1-hOrai1 ECL2 (AESVIV) protein (human/mouse chimera, UniProt Q8BWG9 1-304 (mouse entry)); assay: FACS, 293EBNA transfectants [D00028 FIG. 16B]
T9 construct: also called Ch
T9 sequence (Q8BWG9 other isoform, or with tags, fused parts or gaps): as the sequence (Q8BWG9 other isoform, or with tags, fused parts or gaps mutant) above, with P218A, A219E, G221V, A222I, A223V counted along it
Text: as §1, §2

T1 sequence (Q96D31 whole entry): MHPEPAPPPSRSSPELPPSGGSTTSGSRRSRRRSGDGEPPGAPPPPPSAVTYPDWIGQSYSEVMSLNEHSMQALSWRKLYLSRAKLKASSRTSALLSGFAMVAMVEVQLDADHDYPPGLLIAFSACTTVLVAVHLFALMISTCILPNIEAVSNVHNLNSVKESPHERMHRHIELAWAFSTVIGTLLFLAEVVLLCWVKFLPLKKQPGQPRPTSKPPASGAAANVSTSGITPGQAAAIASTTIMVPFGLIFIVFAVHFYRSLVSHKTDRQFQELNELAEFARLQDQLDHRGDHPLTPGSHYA

Binder	Kd (human Orai1 [1]) [nM]	IC50 IFN-γ, whole blood Donor A, recombinant mAb (human Orai1 [2]) [nM]	IC50 IFN-γ, whole blood Donor B, recombinant mAb (human Orai1 [2]) [nM]	IC50 IL-2, whole blood Donor A, recombinant mAb (human Orai1 [2]) [nM]	IC50 IL-2, whole blood Donor B, recombinant mAb (human Orai1 [2]) [nM]	percent of control (POC) of FACS Geo Mean [3] [%]	percent of control (POC) of FACS Geo Mean [4] [%]	percent of control (POC) of FACS Geo Mean [5] [%]	percent of control (POC) of FACS Geo Mean [6] [%]	percent of control (POC) of FACS Geo Mean [7] [%]	percent of control (POC) of FACS Geo Mean [8] [%]	IC50 IFN-γ, whole blood Donor A (human Orai1 [9]) [nM]	IC50 IFN-γ, whole blood Donor B (human Orai1 [9]) [nM]	IC50 IL-2, whole blood Donor A (human Orai1 [9]) [nM]	IC50 IL-2, whole blood Donor B (human Orai1 [9]) [nM]	IC50, NFAT-mediated luciferase assay (FIG. 6B) (human Orai1 [10]) [nM]	IC50, NFAT-mediated luciferase assay (FIG. 6C) (human Orai1 [10]) [nM]	binding result [11]	binding result [12]	IC50 of ICRAC current block, whole-cell patch clamp, HEK-293/hOrai1/hSTIM1 BB6.3 (human Orai1 [10]) [nM]
mAb 2D2.1 (antibody, human IgG2, lambda, V domains shown, fully human IgG2 lambda, Campaign 1; also called mAb 2D.1) VH: QVQLQQWGAGLLKPSETLSLTCAVYGGSFSGYYWSWIRQPPGKGLEWIGEIDHSGRINYNPALKSRLTISVDTSKNQFSLKLSSVTAADTAVYYCARAGSGGYEDWFDPWGQGTLVTVSS VL: QSVLTQPPSVSGAPGQRVTISCTGSSSNIGAGYNVHWYQQFPRTDPKLLIYVYNIRPSGVPDRFSGSRSGTSASLAITGLQTEDEADYYCQSYDSSLSGVVFGGGTKLTVLG	0.099					40 to 100	40 to 100	40 to 100	40 to 100	5 to 40	40 to 100	1.98	2.06	1.31	1.16	2.8	2.7			
mAb 2B7.1 (antibody, human IgG2, V domains shown, fully human, Campaign 1) VH: QVQLQQWGAGLLKPSETLSLTCAVYGGSFSGYYWSWIRQPPGKGLEWIGEIDHSGSTNYNPALKSRLTISVDTSKNQFSLKLSSVTAADTAVYYCARAGSGGYEDWFDPWGQGTLVTVSS VL: QSVLTQPPSVSGAPGQRVTISCTGSSSNIGTGYNVHWYQQFPRTDPKLLIYVYNIRPSGVPDRFSGSRSGTSASLAITGLQTEDEADYYCQSYDSSLSGVVFGGGTKLTVLG	0.1					40 to 100	40 to 100	40 to 100	40 to 100	5 to 40	40 to 100	4.6	14	3.5	4.67	4.2	3.5	binds	binds	
mAb 2C1.1 (antibody, human IgG2, lambda, V domains shown, fully human IgG2 lambda, Campaign 1; tested hybridoma-purified and recombinant; also called anti-hOrai1 mAb 2C1.1) VH: QVQLQQWGAGLLKPSETLSLTCAVYGGSFSGYYWSWIRQPPGKGLEWIGEIDHSGSTNYNPALKSRLTISVDTSKNQFSLKLSSVTAADTAVYYCARAGSGGYEDWFDPWGQGTLVTVSS VL: QSVLTQPPSVSGAPGQRVTISCTGSSSNIGAGYNVHWYQQFPRTDPKLLIYVYNIRPSGVPDRFSGSRSGTSASLAITGLQTEDEADYYCQSYDSSLSGVVFGGGTKLTVLG	0.04					40 to 100	40 to 100	40 to 100	40 to 100	5 to 40	40 to 100	17.1	2.67	5.23	1.44	4.4	1.8	binds	binds	55.9
mAb 5A4.2 (antibody, human IgG2, lambda, V domains shown, fully human IgG2 lambda, Campaign 2) VH: QVQLVQSGAEVKKPGASVKVSCKASGYTFTDYYMNWVRQAPGQGLEWMGWINPNSGGTKYAQKFQGRVTMTRDTSIRTAYMELSRLRSDDTAVYYCSREYGGNSDWFDPWGQGTLVTVSS VL: QSVLTQPPSVSGAPGQRVTISCTGSSSNIGAGYDVHWYQQLPGTAPKLLIYGNSNRPSGVPDRFSGSKSGTSASLAITGLQAEDEADYYCQSYDNRLSDSVVIGGGTKLTVQG		0.59	3.59	1.42	0.87															
mAb 5B1.1 (antibody, human IgG2, lambda, V domains shown, fully human IgG2 lambda, Campaign 2; also called mAb 5Bl1.1) VH: QVQLVQSGAEVKKPGASVKVSCKASGYTFTDYYINWVRQAPGQGLEWMGWINPNSGGSSYAQKFQGRVTMTRDTSISTAHMELIRLRSDDTAVYYCARERGGIEDWFDPWGQGTLVTVSS VL: QSVLTQPPSVSGAPGQRVTISCTGSSSNIGAGYDVHWYQQLPGTAPKLLIYGNSNRPSGVPDRFSGSKSGTSASLAITKFQAEDEAVYYCQSYGSGLSGVVFGGGTKLTVLG		0.52	34.8	2.08	9.52															

Second part, the binder after the results:

Kd (human Orai1 [1]) [nM]	IC50 IFN-γ, whole blood Donor A, recombinant mAb (human Orai1 [2]) [nM]	IC50 IFN-γ, whole blood Donor B, recombinant mAb (human Orai1 [2]) [nM]	IC50 IL-2, whole blood Donor A, recombinant mAb (human Orai1 [2]) [nM]	IC50 IL-2, whole blood Donor B, recombinant mAb (human Orai1 [2]) [nM]	percent of control (POC) of FACS Geo Mean [3] [%]	percent of control (POC) of FACS Geo Mean [4] [%]	percent of control (POC) of FACS Geo Mean [5] [%]	percent of control (POC) of FACS Geo Mean [6] [%]	percent of control (POC) of FACS Geo Mean [7] [%]	percent of control (POC) of FACS Geo Mean [8] [%]	IC50 IFN-γ, whole blood Donor A (human Orai1 [9]) [nM]	IC50 IFN-γ, whole blood Donor B (human Orai1 [9]) [nM]	IC50 IL-2, whole blood Donor A (human Orai1 [9]) [nM]	IC50 IL-2, whole blood Donor B (human Orai1 [9]) [nM]	IC50, NFAT-mediated luciferase assay (FIG. 6B) (human Orai1 [10]) [nM]	IC50, NFAT-mediated luciferase assay (FIG. 6C) (human Orai1 [10]) [nM]	binding result [11]	binding result [12]	IC50 of ICRAC current block, whole-cell patch clamp, HEK-293/hOrai1/hSTIM1 BB6.3 (human Orai1 [10]) [nM]	Binder
0.019	0.28	10.7	1.32	2.52																mAb 5F7.1 (antibody, human IgG2, lambda, fully human IgG2 lambda, Campaign 2) heavy: QVQLVQSGAEVKKPGASVKVPCKASGYTFTDYYINWVRQAPGQGLEWMGWINPNNGGTNYAQKFQGRVTMTRDTSISTAYMELRRLRSDDTAVYYCARERGGYEDWFDPWGQGTLVTVSSASTKGPSVFPLAPCSRSTSESTAALGCLVKDYFPEPVTVSWNSGALTSGVHTFPAVLQSSGLYSLSSVVTVPSSNFGTQTYTCNVDHKPSNTKVDKTVERKCCVECPPCPAPPVAGPSVFLFPPKPKDTLMISRTPEVTCVVVDVSHEDPEVQFNWYVDGVEVHNAKTKPREEQFNSTFRVVSVLTVVHQDWLNGKEYKCKVSNKGLPAPIEKTISKTKGQPREPQVYTLPPSREEMTKNQVSLTCLVKGFYPSDIAVEWESNGQPENNYKTTPPMLDSDGSFFLYSKLTVDKSRWQQGNVFSCSVMHEALHNHYTQKSLSLSPGK light: QSVLTQPPSVSGAPGQRVTISCTGSSSNIGAGFDVHWYQQLPVTAPKLLIYGNRNRPSGVPARFSGSKSGTSASLAITGLQAEDEAVYYCQSYDSSLTVFGGGTKLTVLGQPKANPTVTLFPPSSEELQANKATLVCLISDFYPGAVTVAWKADGSPVKAGVETTKPSKQSNNKYAASSYLSLTPEQWKSHRSYSCQVTHEGSTVEKTVAPTECS
	11.1	9.84	2.42	2.43																mAb 5F2.1 (antibody, human IgG2, lambda, V domains shown, fully human IgG2 lambda, Campaign 2) VH: QVQLVQSGAEVKKPGASVKVSCKASGYTFTDYYMNWVRQAPGQGLEWMGWINPNSGGTHYAQKFQGRVTMTRDTSISTAYMELSRLRSDDTAVYYCAREYGGYSDWFDPWGQGTLVTVSS VL: QSVLTQPPSVSGAPGQRVTISCTGSRSNIGAGYDVHWYQQLPRTAPKLLIYDNSNRPSGVPDRFSGSKSGSSASLAITGLQAEDEADYYCQSYDNSLSDSVLIGGGTKLTVLG
